Measurements as given in PMC7783346.
Values joined by “and” are separate entries in the source; they are usually repeats but may differ in a detail not shown here. Identical values can stand only once. Values belong to the substance of their own block, whether it stands above or below them.

Key:
[1] = target: His6-KfrCRA3 labelled with RED-Tris-NTA (plasmid RA3 (IncU), isolated from Aeromonas spp.); test: MST; labelled His6-KfrC constant at 50 nM, KfrA from 500 nM to 0.0153 nM; 50 mM KPi pH 7.4, 300 mM NaCl, 0.05% Tween 20; measured at 37°C on Monolith NT.115; four independent experiments
[2] = test system: His6-KfrA178-355 (plasmid RA3 (IncU; Aeromonas hydrophila in Fig S1/S3)); test: EMSA; conditions: EMSA: 50 mM Tris-HCl pH 8.0, 10 mM MgCl2, 50 mM NaCl, 37 C, 30 min, 10 nM EcoRI-NdeI-digested plasmid DNA (vector fragment as internal competitor), 20 ul …
[3] = test system: His6-KfrA WT (plasmid RA3 (IncU; Aeromonas hydrophila in Fig S1/S3)); test: EMSA; conditions: EMSA: 50 mM Tris-HCl pH 8.0, 10 mM MgCl2, 50 mM NaCl, 37 C, 30 min, 10 nM EcoRI-NdeI-digested plasmid DNA (vector fragment as internal competitor), 20 ul …
[4] = target: IncC of plasmid RA3 fused to CyaA T25 (BACTH) (plasmid RA3 (IncU), isolated from Aeromonas spp.); test: two-hybrid; bacterial adenylate cyclase two-hybrid (BACTH) in E. coli BTH101 cyaA; CyaA T18 and T25 fusions; MacConkey plates with 1% maltose and β-galactosidase assays in liquid cultures
[5] = target: KfrA of plasmid RA3, intact, fused to a CyaA fragment (BACTH) (plasmid RA3 (IncU), isolated from Aeromonas spp.); test: as above
[6] = target: KorB of plasmid RA3 fused to a CyaA fragment (BACTH) (plasmid RA3 (IncU), isolated from Aeromonas spp.); test: as above

Kd [1]: 54 nM
Substance: KfrARA3 with the His6 tag removed (natural protein)

Substance: pUC18 vector control fragment
K half [2]: 1000 nM

Substance: WT OK (kfrAp), EcoRI-NdeI fragment of pESB2.68
K half ([3]; OK variant series): 240 nM
K half ([3]; preparation used with Ala variants): 180 nM
K half ([3]; preparation used with deletion variants, preparations ranged 0.18-0.32 uM): 320 nM
K half [2]: 1700 nM

Substance: KfrA of plasmid RA3, intact, fused to a CyaA fragment (BACTH) (natural protein)
β-galactosidase activity [4]: 136 U
β-galactosidase activity [5]: 4880 U and 5170 U
β-galactosidase activity [6]: 1970 U

Substance: KfrC of plasmid RA3, intact, fused to a CyaA fragment (BACTH) (natural protein)
β-galactosidase activity [6]: 1010 U
